Reference: US20040197795A1 (published 2004)

Molecular target: T1, RNase I, an RNase from E. coli (Promega Cat. #M4261) (E. coli, UniProt P21338 24-268)
T1 sequence (looked up): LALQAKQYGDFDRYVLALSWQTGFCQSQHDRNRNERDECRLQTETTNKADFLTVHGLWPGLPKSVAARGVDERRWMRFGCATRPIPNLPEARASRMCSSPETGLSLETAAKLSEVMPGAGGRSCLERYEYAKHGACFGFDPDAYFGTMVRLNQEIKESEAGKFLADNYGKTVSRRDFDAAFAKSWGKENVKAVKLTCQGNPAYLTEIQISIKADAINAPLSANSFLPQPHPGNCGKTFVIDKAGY
Test: cell-based or functional assay

B1: "RNasin Plus"-brand RNase inhibitor (recombinant rat-derived RNase inhibitor protein, Promega Pt # N261) (other, UniProt P29315 1-456, looked up)
chain: MSLDIQCEQLSDARWTELLPLIQQYQVVRLDDCGLTEVRCKDIRSAIQANPALTELSLRTNELGDAGVGLVLQGLQNPTCKIQKLSLQNCSLTEAGCGVLPDVLRSLSTLRELHLNDNPLGDEGLKLLCEGLRDPQCRLEKLQLEYCNLTATSCEPLASVLRVKPDFKELVLSNNDFHEAGIHTLCQGLKDSACQLESLKLENCGITSANCKDLCDVVASKASLQELDLGSNKLGNTGIAALCSGLLLPSCRLRTLWLWDCDVTAEGCKDLCRVLRAKQSLKELSLAGNELKDEGAQLLCESLLEPGCQLESLWVKTCSLTAASCPHFCSVLTKNRSLFELQMSSNPLGDSGVVELCKALGYPDTVLRVLWLGDCDVTDSGCSSLATVLLANRSLRELDLSNNCMGDNGVLQLLESLKQPSCILQQLVLYDIYWTDEVEDQLRALEEERPSLRIIS
B1 was tested, and the “% inhibition of RNase; RNasin Plus-brand inhibitor without DTT increased 10-fold (10×); 58° C.” value was 100%.
